Measured values reported in publication PMC2904422.

Biological target: myelin and lymphocyte protein 2 (MAL2) (rat (endogenous in WIF-B)) (UniProt Q7TPB7)
Experiment: co-IP

percent of total pIgA-R coimmunoprecipitated (% of total pIgA-R): 1
Substance: polymeric immunoglobulin A-receptor (pIgA-R), mature form (from UniProt P15083 19-769)
